Results from US12129490B2, “Methods for generating hepatocytes and cholangiocytes from pluripotent stem cells” (UNIVERSITY HEALTH NETWORK, priority 2018, dated 2024).

B1: TGFβ2: TGFbeta family member (protein, UniProt P61812 303-414, looked up)
Transforming growth factor …: ALDAAYCFRNVQDNCCLRPLYIDFKRDLGWKWIHEPKGYNANFCAGACPYLWSSDTQHSRVLSLYNTINPEASASPCCVSQDLEPLTILYYIGKTPKIEQLSNMIVKSCKCS
modifications: Transforming growth factor beta-2
notes: TGFbeta family member
B2: Wnt3A: wingless-type MMTV integration site family, member 3A factor, added to activin-induced EB cultures (protein, UniProt P56704 19-352, looked up)
Protein Wnt-3a: SYPIWWSLAVGPQYSSLGSQPILCASIPGLVPKQLRFCRNYVEIMPSVAEGIKIGIQECQHQFRGRRWNCTTVHDSLAIFGPVLDKATRESAFVHAIASAGVAFAVTRSCAEGTAAICGCSSRHQGSPGKGWKWGGCSEDIEFGGMVSREFADARENRPDARSAMNRHNNEAGRQAIASHMHLKCKCHGLSGSCEVKTCWWSQPDFRAIGDFLKDKYDSASEMVVEKHRESRGWVETLRPRYTYFKVPTERDLVYYEASPNFCEPNPETGSFGTRDRTCNVSSHGIDGCDLLCCGRGHNARAERRREKCRCVFHWCCYVSCQECTRVYDVHTCK
B3: TGFβ3: TGFbeta family member (protein, UniProt P10600 301-412, looked up)
Transforming growth factor …: ALDTNYCFRNLEENCCVRPLYIDFRQDLGWKWVHEPKGYYANFCSGPCPYLRSADTTHSTVLGLYNTLNPEASASPCCVPQDLEPLTILYYVGRTPKVEQLSNMVVKSCKCS
modifications: Transforming growth factor beta-3
notes: TGFbeta family member
B4: EGF: Epidermal Growth factor (protein, UniProt P01133 23-1207, looked up)
Pro-epidermal growth factor: PQHWSCPEGTLAGNGNSTCVGPAPFLIFSHGNSIFRIDTEGTNYEQLVVDAGVSVIMDFHYNEKRIYWVDLERQLLQRVFLNGSRQERVCNIEKNVSGMAINWINEEVIWSNQQEGIITVTDMKGNNSHILLSALKYPANVAVDPVERFIFWSSEVAGSLYRADLDGVGVKALLETSEKITAVSLDVLDKRLFWIQYNREGSNSLICSCDYDGGSVHISKHPTQHNLFAMSLFGDRIFYSTWKMKTIWIANKHTGKDMVRINLHSSFVPLGELKVVHPLAQPKAEDDTWEPEQKLCKLRKGNCSSTVCGQDLQSHLCMCAEGYALSRDRKYCEDVNECAFWNHGCTLGCKNTPGSYYCTCPVGFVLLPDGKRCHQLVSCPRNVSECSHDCVLTSEGPLCFCPEGSVLERDGKTCSGCSSPDNGGCSQLCVPLSPVSWECDCFPGYDLQLDEKSCAASGPQPFLLFANSQDIRHMHFDGTDYGTLLSQQMGMVYALDHDPVENKIYFAHTALKWIERANMDGSQRERLIEEGVDVPEGLAVDWIGRRFYWTDRGKSLIGRSDLNGKRSKIITKENISQPRGIAVHPMAKRLFWTDTGINPRIESSSLQGLGRLVIASSDLIWPSGITIDFLTDKLYWCDAKQSVIEMANLDGSKRRRLTQNDVGHPFAVAVFEDYVWFSDWAMPSVMRVNKRTGKDRVRLQGSMLKPSSLVVVHPLAKPGADPCLYQNGGCEHICKKRLGTAWCSCREGFMKASDGKTCLALDGHQLLAGGEVDLKNQVTPLDILSKTRVSEDNITESQHMLVAEIMVSDQDDCAPVGCSMYARCISEGEDATCQCLKGFAGDGKLCSDIDECEMGVPVCPPASSKCINTEGGYVCRCSEGYQGDGIHCLDIDECQLGEHSCGENASCTNTEGGYTCMCAGRLSEPGLICPDSTPPPHLREDDHHYSVRNSDSECPLSHDGYCLHDGVCMYIEALDKYACNCVVGYIGERCQYRDLKWWELRHAGHGQQQKVIVVAVCVVVLVMLLLLSLWGAHYYRTQKLLSKNPKNPYEESSRDVRSRRPADTEDGMSSCPQPWFVVIKEHQDLKNGGQPVAGEDGQAADGSMQPTSWRQEPQLCGMGTEQGCWIPVSSDKGSCPQVMERSFHMPSYGTQTLEGGVEKPHSLLSANPLWQQRALDPPHQMELTQ
modifications: Pro-epidermal growth factor

Assays:
[1] = test system: hPSC-derived hepatoblast aggregates; test: Growth factor addition to hepatoblast aggregates co-cultured on OP9 stroma; type: cell-based, human; conditions: for cholangiocyte branching: hepatoblasts co-cultured with OP9
Text: To investigate the effect of Notch signaling on cholangiocyte development, we co-cultured the hepatoblast population (day 25) with OP9 stromal cells that are known to express different Notch ligands including Jagged-1^4,5. […] To overcome this problem, we generated 3D aggregates from the day 25 monolayer cells and cultured them on the OP9 stromal cells.

[2] = test system: hESC-derived embryoid bodies; test: Endoderm induction in hESC-derived embryoid bodies, flow cytometry; type: cell-based, human; conditions: day six EBs
Method: Similar to protocols using monolayer cultures^16, it involves specific steps that recapitulate the critical stages of liver development in the early embryo. EBs are formed from small aggregates by culture for 24 hours in low levels of BMP4, as previously described^18. The EBs are subsequently exposed to high concentrations of activin A (hereafter referred to as activin) for five days to induce definitive endoderm, a population defined by expression of the surface markers CXCR4, CKIT and EPCAM and the transcription factors SOX17 and FOXA2.
Addition of Wnt3A to the activin-induced EB cultures led to reproducible increases in the proportion of CXCR4^+, SOX17^+ and FOXA2^+ cells within the EBs (FIG. 1c). With the increase in CXCR4 expression, the proportion of CKIT^+CXCR4^+ and CXCR4^+EPCAM^+ cells increased to greater than 95% of the population. […] Endoderm induction in the EBs was influenced by the base culture media used. StemPro34 supported more efficient endoderm induction than neural basal media that we used previously (FIG. 1f). The induction of highly enriched endoderm is an important first step in the efficient and reproducible generation of hepatocyte-like cells from hPSCs.
Media was changed every 3 days.
Flow cytometric analyses were performed as described previously^45. […] Stained cells were analyzed using an LSRII flow cytometer (BD).

Row | Molecule | cholangiocyte branching [1] | also measured
1 | B1 | promote branching structures | 
2 | B2 |  | proportion co-expressing CXCR4 and CKIT or CXCR4 and EPCAM [2]: greater than 95%
3 | B3 | promote branching structures | 
4 | B4 |  | development of CK19+ clusters ([1]; OP9 co-culture): increase in the size
